According to the RNAGym collection of RNA variant scans (doi:10.1101/gr.219683.116):

B1: mRNA-splicing (parent)
chain: AGUUGCUGCUGGGAGCUCCAGCACAGUGAAAUGGACAGAAGGGCAGAGCAA

Variants of: B1
Experiment: exon inclusion enrichment index; higher = more inclusion; WT1 exon 5 minigene, HEK293

Variant	exon inclusion enrichment index
G5C C6G U7C U10C C19U A20U	1.48
G5A C6U U7A G8U C9A G34A A35C	0.0538
G2U U3A G5C C6G U7C U10C	5.21
C6A U7A C9A U10A C18A C19A	0.0959
G5A U7C G8A U10C A39C A40U	1.28
G5A C6G U7G C9A G34U A35C	0.000948
G5C C6A U7C G8A U10A C24U A25U	0.151
G5C C6A U7C G8A U10A C24U A25C	0.98
G5A U7C G8A U10C A25C	4.03
G5A C6U U7A G8U C9A G26C U27A	0.0751
G5A C6U U7A G8U C9A G26C U27C	0.489
G5U C6U U7C G8A U10A	0.0434
G5A U7C G8A U10C G46U A47U	2.48
G5U G8U C9U G41U G42A	0.0453
A37U G38A	0.0367
G5A C6U U7A G8U C9A G26U U27A	0.0488
G5C C6G U7C U10C G15U C16A	3.58
G5C C6G U7C U10C C22G A23G	2.57
G5C C6G U7C U10C G46U	2.51
G5C C6G U7C U10C G46C	2.78
U3C C6A U7C C9A U10C	3.44
G5C C6U G8C C9U U10C G43A C44U	2
G5C C6U G8C C9U U10C G43A C44G	3.59
G5U U7G G8C C9U	1.58

Variant	exon inclusion enrichment index
G5A U7C G8A U10C A30U A31C	2.13
G5A C6G U7G C9A A20U G21C	0.00185
G5A C6G U7G C9A C36U A37G	0.00557
G5C C6U G8C C9U U10C G12A G13C	0.692
G5U G8U C9U C44A A45C	0.576
G5U G8U C9U G42U G43U	0.409
G5A C6U C9A	0.306
C6A U7C C9A U10C G34U A35C	1.5
G5C C6U G8A U10C	1.18
G5U G8U C9U A23G C24A	0.532
G5C C6A U7C G8A U10A G11C G12A	0.0929
G5U G8U C9U A37U	0.104
A45U G46U	0.0239
G5U G8U C9U A47U G48C	0.0643
G5A U7C G8A U10C G41C	3.34
G5A C6G U7G C9A G33C G34U	0.00222
G5A C6G U7G C9A G33C G34C	0.0007
C6A U7A C9A U10A G12A	1.32
C6A U7C C9A U10C C19A	2.55
U4G G5C C6U U7A G8U C9A	0.157
G5A U7G G8U C9A	0.583
G5C C6U G8C C9U U10C U17C C18A	1.45
G5C C6G U7C U10C A35U C36U	0.0671
G5A C6U U7A G8U C9A U27A	0.0803

Variant	exon inclusion enrichment index
G5A C6G U7G C9A U10A G11C	0.0223
G5A C6G U7G C9A A45G G46C	0.00144
A29G A30G	0.114
G5A U7C G8A U10C C44A A45C	3.95
G5C C6G U7C U10C G21U C22U	1.36
C6A U7C C9A U10C C44G A45U	3.12
G5C C6G U7C U10C A25U G26C	3.41
G26U U27A	0.0316
G5C C6G U7C U10C G33U G34A	0.696
G5C C6G U7C U10C C44U A45U	2.84
G5C C6A U7C G8A C9A U10C	1.81
G5A C6U U7A G8U C9A C19A	0.0415
G5C C6U G8C C9U U10C A30C	2.23
G5A C6U U7A G8U C9A G41A G42U	0.0659
G5C C6U G8C C9U U10C A37G	2.83
G5C C6U G8C C9U U10C A37U	1.73
G5C C6U G8C C9U U10C G34A A35G	0.76
U3G U4A G5C C6A U7C G8A U10A	0.0657
G5U G8U C9U A39G A40G	0.00566
G5A U7C G8A U10C A29U A30G	2.78
G5A U7C G8A U10C G13U A14G	0.535
C6A U7A C9A U10A A31U U32C	1.09
A40C G41C	0.92
G5U G8U C9U A47C	0.283

Variant	exon inclusion enrichment index
G5A U7C G8A U10C C44G A45G	0.315
G5C C6A U7C G8U U10A	0.146
G5A C6G U7G C9A U27G G28U	0.0007
C6A U7A C9A U10A A40G	0.737
G5A U7C G8A U10C U17G C18A	2.15
G5U G8U C9U G28U A29G	0.118
C6A U7A C9A U10A G43A C44G	2.4
G5A C6U U7A G8U C9A A47U G48U	0.0462
A45G	0.486
G5C C6U G8C C9U U10C G15A	0.641
U3G G5A U7C G8A U10C	0.68
G5C C6A	0.0337
C6A U7C C9A U10C G13U A14G	2.11
U4C G5C C6A U7A C9A U10A	1.37
C6A U7A C9A U10A A40C G41A	0.218
G5A C6U U7A G8U C9A C44U A45C	0.1
C6A U7C C9A U10C G12A G13C	2.54
G5A C6G U7G C9A A30G A31U	0.000963
C6A U7A C9A U10A A14G G15C	0.529
G5A C6G U7G C9A A40U G41C	0.0209
U3A U4G G5U G8U C9U	0.143
G5C C6U G8C C9U U10C G13A A14C	2.59
G5C G8U C9U	0.0356
G26C U27G	0.615

Variant	exon inclusion enrichment index
G5A U7C G8A U10C G41A G42A	1.99
G5C C6U U7G C9A	1.42
G5C C6G U7C U10C U27G G28A	3.58
C6A U7A C9A U10A C18U C19U	0.00807
G5C C6G U7C C9A U10C	4
G5C C6G U7C C9A U10G	1.77
G5C C6G U7A G8C U10C	2.57
G5C C6U G8C C9U U10C G34C	0.84
C6A U7C C9A U10C G13C A14G	2.83
G5U G8U C9U C22A A23G	0.141
U3A U4C G5A C6U U7A G8U C9A	0.3
G5C C6U G8C C9U U10C G34U A35U	0.377
G5C C6G U7C U10C A39C A40C	3.63
G38U A39U	0.000945
G5C C6G U7C U10C G13C A14U	1.88
G5C C6G U7C U10C C22A A23C	3.98
G5A C6U U7A G8U C9A C24G A25U	0.0695
G5C C6A U7C G8A U10A A14C G15U	0.00827
C6A U7A C9A U10A A39U	0.0237
G5C C6G U7C U10C G26A U27G	3.56
G5C C6A U7C G8A U10A G34A A35C	0.0814
G5A C6U U7A G8U C9A G43A	0.454
G5A C6U U7A G8U C9A G43U	0.0904
G5A C6G U7G C9A G46C	0.00111

Variant	exon inclusion enrichment index
C6A U7C C9A U10C A40U G41C	3.18
C6A U7C C9A U10C A40U G41U	1.9
G5A C6U U7A G8U C9A G46C A47U	0.0869
G5A C6U U7A G8U C9A G48A	0.185
G5U C6A G8U C9U	0.0752
G5A C6U U7A G8U C9A G11A G12A	0.00659
G5A C6U U7A G8U C9A G11A G12C	0.0285
G2U G5C C6G U7C U10C	4.96
G5A U7C G8A U10C C36G A37G	0.405
G5A C6U U7A G8U C9A A25G G26A	0.36
G5A C6U U7A G8U C9A C36G	0.0434
G5C C6A U7C G8A U10A G46U A47G	0.118
G5C C6A U7C G8A U10A A14U	0.0358
C6A U7C C9A U10C A39U	0.343
G5C C6A U7C G8A U10A C36U A37U	0.0725
G5A C6G U7G C9A G42A	0.025
U10C	2.72
G5C C6U G8C C9U U10C A37C G38C	1.95
G5A C6A U7C G8A U10A	0.063
G5A C6U U7A G8U C9A A35U C36U	0.000729
U3G U4G G5C C6U G8C C9U U10C	0.152
G5C C6A U7C G8A U10A A31C U32A	0.0301
A35U C36U	0.000825
C6A U7C C9A U10C G46U A47G	2.8

Variant	exon inclusion enrichment index
G2A U3A C6A U7C C9A U10C	2.68
G5C C6G U7C U10C C22U A23G	3.6
G5A C6G U7G C9A C16A U17G	0.00129
U32G G33C	0.143
U3C U4A G5A C6G U7G C9A	0.0853
G2U U3C G5C C6A U7C G8A U10A	0.619
C6A U7A C9A U10A A31G U32C	2.27
G5C C6A U7C G8A U10A A25G G26A	0.663
G8C C9A	0.365
G5C C6A U7C G8A U10A G12A	0.208
G5C C6A U7C G8A U10A G12U	0.0134
C6A U7A C9A U10A A47U	0.546
G5A C6G U7G C9A C44U	0.000609
U4A G5A C6A U7A C9A U10A	0.0853
G5A U7C G8A U10C A45C G46U	1.12
G5C C6G U7C U10C G34U A35C	1.66
G5C C6U G8C C9U U10C A20G G21A	2.38
G5U G8U C9U U27A	0.208
G5U G8U C9U G21A C22U	0.0464
C6A U7A C9A U10A A35G C36U	0.00209
G5A U7C G8A U10C A37G	3.3
G5A C6U U7A G8U C9A A31G U32C	0.424
G43C C44U	0.086
